Legend:
[1] = target: Angiogenin (ANG), human recombinant (human, UniProt P03950 25-147); experiment: equilibrium dialysis
[2] = target: ANG variant H13A (human, UniProt P03950 25-147, H13A); experiment: ELISA
Chain of ANG variant H13A (P03950 25-147 H37A): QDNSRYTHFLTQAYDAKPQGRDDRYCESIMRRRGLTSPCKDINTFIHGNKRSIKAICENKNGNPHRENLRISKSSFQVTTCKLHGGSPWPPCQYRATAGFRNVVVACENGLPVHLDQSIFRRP

Chain of Angiogenin (ANG), human recombinant (P03950 25-147): as the sequence (P03950 25-147 H37A) above, with A13H counted along it

- binding result [1]: binds
- binding result [2]: binds
B1: PLXNB2 peptide hplb2-15-06 (peptide)
peptide: TSSEYDSILVEINKR
